In publication PMC3259199:

Tests used:
[1] = biological target: MD145 virus protease (MD145pro) (MD145 virus (norovirus GII/4))
[2] = biological target: Norwalk virus protease (NVpro) (Norwalk virus (norovirus GI/1)) (UniProt Q83883)
Sequence of UniProt Q83883 (Q83883 1101-1281): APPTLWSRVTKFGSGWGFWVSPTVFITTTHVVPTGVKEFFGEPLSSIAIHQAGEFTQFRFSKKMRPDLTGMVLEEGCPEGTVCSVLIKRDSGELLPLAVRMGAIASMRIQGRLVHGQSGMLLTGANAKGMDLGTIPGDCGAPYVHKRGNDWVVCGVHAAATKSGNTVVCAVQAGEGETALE

Binder | Km of cleavage of the fluorogenic substrate (FRET protease assay) [1] | Km of cleavage of the fluorogenic substrate (FRET protease assay) [2]
edans-EPDFHLQGPEDLAK-dabcyl [edans-…-dabcyl] | 545 µM | 790 µM
edans-DFHLQGP-dabcyl [edans-DFHLQGP-dabcyl] | 160 µM | 272 µM
